From PMC4043723

Tests used:
Assay in all cases: voltammetric sandwich aptasensor
thrombin = thrombin (UniProt P00734;P00734 328-363;364-622)
horseradish peroxidase = horseradish peroxidase (horseradish, UniProt P00433 31-338)
[1] = target: prostate-specific antigen (PSA) (UniProt P07288 25-261)

Measured: binding result

Sequence of prostate-specific antigen (PSA) (P07288 25-261): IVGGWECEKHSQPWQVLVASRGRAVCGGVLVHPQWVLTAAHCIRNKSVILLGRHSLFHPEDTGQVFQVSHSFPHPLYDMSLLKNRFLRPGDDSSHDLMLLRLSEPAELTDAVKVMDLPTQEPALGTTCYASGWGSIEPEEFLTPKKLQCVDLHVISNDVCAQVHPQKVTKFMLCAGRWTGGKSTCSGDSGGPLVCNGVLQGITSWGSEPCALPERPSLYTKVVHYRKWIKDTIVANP
Sequence of horseradish peroxidase (P00433 31-338): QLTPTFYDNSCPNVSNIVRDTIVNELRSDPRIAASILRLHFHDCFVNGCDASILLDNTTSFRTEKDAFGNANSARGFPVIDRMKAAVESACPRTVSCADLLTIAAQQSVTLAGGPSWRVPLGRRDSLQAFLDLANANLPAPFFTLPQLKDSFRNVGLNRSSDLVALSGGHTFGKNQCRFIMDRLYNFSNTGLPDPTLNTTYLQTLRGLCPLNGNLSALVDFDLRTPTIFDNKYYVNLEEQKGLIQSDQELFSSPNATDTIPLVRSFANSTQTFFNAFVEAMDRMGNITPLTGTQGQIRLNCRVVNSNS

GATTGAAAGGTCTGTTTTTGGGGTTGGTTTGGGTCAATA (ssDNA, 5'-SH-(CH2)6) [anti-rHuEPO aptamer (39-base)]
no binding: all assays above
